According to the supplement of paper PMC9170038:

Tested on: MS2 coat protein
Assay: apparent KD of MS2 coat protein; designed switch direction (-1 OFF switch, 1 ON switch): -1; higher = weaker reporter binding
Outline: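 Each step of the titration lasted 0.8–1.5 h at the lowest concentration and 10–20 min at the highest. The protein, SNAP-549-labelled MS2 coat protein, went from 0.7 or 1.5 nM doubling to 3 µM over RNA switches transcribed on Illumina chips by stalled E. coli RNA polymerase. Normalised cluster fluorescence was curve-fitted, and the per-design median over clusters is given as apparent KD.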

[1] = input ligand: microRNA oligo, concentration not stated

## GAUUGAGAGCAGGAUAUCUUAGAAAUGUAUUAAAGAGAAGGGCUCACAUGAGGAUCACCCAUGUGGUCCUAGAU [JL Dibiri mod 16] (puzzle: Exclusion 6)
Eterna round: R95, input ligand: microRNA oligo, concentration not stated
  apparent KD of MS2 coat protein: 20.8 nM

## GCAAGACGAGGAUAUUGAGAAGGGAACAUGAGGAUCACCCAUGUGGUGGUUUCGACCGGUCGAGAAGGCGUAGAAC [EX5 B.6] (Eterna round: R97, puzzle: Exclusion 5)
Input ligand: FMN 200 uM
  apparent KD of MS2 coat protein: 1150 nM
Input ligand: none
  apparent KD of MS2 coat protein: 957 nM

## GCAAGCUUUUUCGUGGGUGACAUGAGGAUCACCCAUGUUUGCCACGUCUUGUGGGCCCGGGCCCGCGGCCCGGGCCC [-44.9, -65.2, A 12%] (Eterna round: R97, puzzle: Sensor, turn-off variant 1)
Input ligand: FMN 200 uM
  apparent KD of MS2 coat protein: 54.6 nM
Input ligand: none
  apparent KD of MS2 coat protein: 67.6 nM

## GCACAGACAGGAUAUACAUGAGGAUCACCCAUGUGACCCUUAUAGUACUCGCGUACAAGUAGAAGGGUCUGUGC [Omei Ex3 Model Bachelor's Dilema v32] (Eterna round: R97, puzzle: Exclusion 3)
Input ligand: FMN 200 uM
  apparent KD of MS2 coat protein: 320 nM
Input ligand: none
  apparent KD of MS2 coat protein: 832 nM

## GCACGGAGUGUAGGAUAUCUGUGCGAUUAGCUCAGAGAAGGACACAUGAGGAUCACCCAUGUGUACCUCAACACUAAUCCGUGC [Eli exng1 - 076] (Eterna round: R96, puzzle: Exclusion NG 1)
Input ligand: FMN 200 uM
  apparent KD of MS2 coat protein: 10.5 nM
[1]
  apparent KD of MS2 coat protein: 8.88 nM
Input ligand: none
  apparent KD of MS2 coat protein: 10.1 nM

## GCACGGAUGGUAGGAUAUCUGUGCGAUUAGCUCAGAGAAGGACCACAUGAGGAUCACCCAUGUACCUCAAUUAGCCUUCCGUGC [Eli exng1 - 019] (Eterna round: R96, puzzle: Exclusion NG 1)
Input ligand: FMN 200 uM
  apparent KD of MS2 coat protein: 14.8 nM
[1]
  apparent KD of MS2 coat protein: 11.3 nM
Input ligand: none
  apparent KD of MS2 coat protein: 15.2 nM

## GCAGAAAGUGUAGGAUAUAGAAAUUAGCGGAAACGCAAUACAUGAGGAUCACCCAUGUUUCCUCACUAGAAGGGCAAAAGCUGC [EXNG2 V2 f] (Eterna round: R96, puzzle: Exclusion NG 2)
[1]
  apparent KD of MS2 coat protein: 12.8 nM

## GCAGAAAGUGUAGGAUAUAGAUAUUAGCGGAAACGCAAUACAUGAGGAUCACCCAUGUUUCCUCACUAGAAGGGCAAAAGCUGC [EXNG2 V2 d] (Eterna round: R96, puzzle: Exclusion NG 2)
Input ligand: FMN 200 uM
  apparent KD of MS2 coat protein: 18.7 nM
[1]
  apparent KD of MS2 coat protein: 12.5 nM
Input ligand: none
  apparent KD of MS2 coat protein: 17.2 nM

## GCAGACGUAGUGAGGAUAUGCUCUACCUCGGUAGAGCAGAAGGCACAUGAGGAUCACCCAUGUGAUUCUUCUGC [Omei Ex4B B10] (Eterna round: R97, puzzle: Brourd's mod of Exclusion 4)
Input ligand: FMN 200 uM
  apparent KD of MS2 coat protein: 324 nM
Input ligand: none
  apparent KD of MS2 coat protein: 47.2 nM

## GCAGACGUAGUGAGGAUAUGCUCUACCUCGGUAGAGCAGAAGGCACAUGAGGAUCACCCAUGUGGUUCCUCAUC [Omei Ex4B B19] (Eterna round: R97, puzzle: Brourd's mod of Exclusion 4)
Input ligand: FMN 200 uM
  apparent KD of MS2 coat protein: 54 nM
Input ligand: none
  apparent KD of MS2 coat protein: 15.6 nM

## GCAGCAAAAUUCCAUAAAACCACAUGAGGAUCACCCAUGUCUCAGGAUAUGGUCUGGAUUACAGGCCAGAAGGGAGAAAGCUGC [Eli exng3 - 058] (Eterna round: R96, puzzle: Exclusion NG 3)
Input ligand: FMN 200 uM
  apparent KD of MS2 coat protein: 14.6 nM
[1]
  apparent KD of MS2 coat protein: 12.6 nM
Input ligand: none
  apparent KD of MS2 coat protein: 13.9 nM

## GCAGCAUAGUGUUAUUACACAAUACAUGAGGAUCACCCAUGUGAGGAUAUGGACUGGAUUACAGUCCAGAAGGCACAAAGCUGC [Zipper Style 3] (Eterna round: R96, puzzle: Exclusion NG 3)
Input ligand: FMN 200 uM
  apparent KD of MS2 coat protein: 21.7 nM
[1]
  apparent KD of MS2 coat protein: 12.5 nM
Input ligand: none
  apparent KD of MS2 coat protein: 19.8 nM
